# Several values for one entry are separate records, joined by “and”; a condition that tells them apart may be missing. Identical values can stand only once.
# Biological target: AVRPM3^b2/c2 lacking the signal peptide, C-terminally FLAG- or HA-tagged (Blumeria graminis f.sp. tritici)
# Assay: cross-linking
substance,measurement,value
"AVRPM3^b2/c2 lacking the signal peptide, C-terminally FLAG- or HA-tagged (natural protein)",stoichiometry N,2 and 3

# — paper doi:10.1101/2024.12.30.629670
